The values that follow come from US20030229005.

In series [1] the test system is Dab-SYPSGIHLC(Flu)LQR-NH2.
Series [2] has as its system Dabcyl-GPLGMRGC(Fluorescein)-NH2.
Series [3] deals with Dnp-VC(Me)PKGITSC(Me)VFR-NH2.
In a further series the target is type IV collagen (UniProt P08572).

“And” between values parts separate entries of the source, which are not always exact repeats. Equal values may be shown once.

Sequence of gelatinase B (chain, as listed by the source): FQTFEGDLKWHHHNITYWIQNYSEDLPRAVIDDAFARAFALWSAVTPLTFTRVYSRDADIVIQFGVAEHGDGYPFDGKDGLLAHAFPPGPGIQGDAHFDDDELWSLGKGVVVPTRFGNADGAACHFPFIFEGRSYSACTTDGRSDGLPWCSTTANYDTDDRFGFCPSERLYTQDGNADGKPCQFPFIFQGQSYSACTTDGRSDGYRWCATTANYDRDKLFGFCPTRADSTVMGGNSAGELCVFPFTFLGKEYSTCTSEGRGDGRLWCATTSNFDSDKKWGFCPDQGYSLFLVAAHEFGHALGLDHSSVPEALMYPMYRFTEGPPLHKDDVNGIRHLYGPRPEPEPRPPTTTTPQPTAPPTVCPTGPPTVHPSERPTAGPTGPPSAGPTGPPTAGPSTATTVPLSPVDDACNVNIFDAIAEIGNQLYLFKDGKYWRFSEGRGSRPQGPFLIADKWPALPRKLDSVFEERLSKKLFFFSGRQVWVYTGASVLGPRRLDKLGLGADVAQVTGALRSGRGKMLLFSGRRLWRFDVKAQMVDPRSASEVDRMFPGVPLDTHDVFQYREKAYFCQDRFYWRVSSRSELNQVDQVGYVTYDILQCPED
Sequence of type IV collagen (P08572 26-1712, chain 1 of 2): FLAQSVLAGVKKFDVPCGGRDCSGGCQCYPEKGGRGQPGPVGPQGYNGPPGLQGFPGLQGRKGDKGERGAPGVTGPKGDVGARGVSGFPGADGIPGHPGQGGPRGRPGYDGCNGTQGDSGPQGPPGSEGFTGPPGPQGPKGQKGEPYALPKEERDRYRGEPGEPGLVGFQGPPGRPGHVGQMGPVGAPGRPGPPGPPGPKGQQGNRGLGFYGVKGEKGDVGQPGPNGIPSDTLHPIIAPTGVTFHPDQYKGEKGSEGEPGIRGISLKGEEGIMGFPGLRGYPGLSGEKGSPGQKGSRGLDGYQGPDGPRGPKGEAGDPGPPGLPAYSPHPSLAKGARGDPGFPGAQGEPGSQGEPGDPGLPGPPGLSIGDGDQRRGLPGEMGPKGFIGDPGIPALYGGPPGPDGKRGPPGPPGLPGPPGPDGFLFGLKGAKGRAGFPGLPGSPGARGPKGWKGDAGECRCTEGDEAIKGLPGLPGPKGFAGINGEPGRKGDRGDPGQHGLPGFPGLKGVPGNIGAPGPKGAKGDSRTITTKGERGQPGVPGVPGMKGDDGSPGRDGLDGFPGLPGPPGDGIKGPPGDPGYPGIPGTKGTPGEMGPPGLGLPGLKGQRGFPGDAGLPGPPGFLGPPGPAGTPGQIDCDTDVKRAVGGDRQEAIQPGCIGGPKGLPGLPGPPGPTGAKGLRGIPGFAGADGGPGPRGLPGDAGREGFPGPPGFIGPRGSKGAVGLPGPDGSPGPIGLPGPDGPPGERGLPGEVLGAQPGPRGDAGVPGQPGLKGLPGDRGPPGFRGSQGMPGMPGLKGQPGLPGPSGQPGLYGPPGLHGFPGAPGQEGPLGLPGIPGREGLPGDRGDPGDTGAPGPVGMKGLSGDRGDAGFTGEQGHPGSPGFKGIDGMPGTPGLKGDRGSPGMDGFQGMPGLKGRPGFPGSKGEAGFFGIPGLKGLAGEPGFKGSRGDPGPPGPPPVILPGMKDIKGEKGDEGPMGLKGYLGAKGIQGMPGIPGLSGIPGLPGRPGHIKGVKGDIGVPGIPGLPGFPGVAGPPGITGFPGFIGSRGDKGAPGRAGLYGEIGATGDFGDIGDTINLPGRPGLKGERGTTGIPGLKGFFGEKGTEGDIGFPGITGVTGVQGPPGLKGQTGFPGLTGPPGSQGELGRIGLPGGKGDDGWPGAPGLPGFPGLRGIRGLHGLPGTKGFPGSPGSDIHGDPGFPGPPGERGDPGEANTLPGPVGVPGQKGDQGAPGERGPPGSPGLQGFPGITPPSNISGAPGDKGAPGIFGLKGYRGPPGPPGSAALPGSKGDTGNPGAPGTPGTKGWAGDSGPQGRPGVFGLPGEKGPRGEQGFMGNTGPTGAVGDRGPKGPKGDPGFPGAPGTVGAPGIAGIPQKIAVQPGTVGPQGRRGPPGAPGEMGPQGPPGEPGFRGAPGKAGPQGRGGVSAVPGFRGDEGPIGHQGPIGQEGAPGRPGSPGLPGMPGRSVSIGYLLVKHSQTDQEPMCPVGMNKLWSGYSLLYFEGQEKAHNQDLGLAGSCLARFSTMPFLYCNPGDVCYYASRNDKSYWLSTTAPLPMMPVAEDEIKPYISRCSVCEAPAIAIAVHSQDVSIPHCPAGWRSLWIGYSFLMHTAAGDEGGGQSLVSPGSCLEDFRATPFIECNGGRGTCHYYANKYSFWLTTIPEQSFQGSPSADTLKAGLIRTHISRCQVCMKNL
Sequence of type IV collagen (chain, as listed by the source, chain 2 of 2): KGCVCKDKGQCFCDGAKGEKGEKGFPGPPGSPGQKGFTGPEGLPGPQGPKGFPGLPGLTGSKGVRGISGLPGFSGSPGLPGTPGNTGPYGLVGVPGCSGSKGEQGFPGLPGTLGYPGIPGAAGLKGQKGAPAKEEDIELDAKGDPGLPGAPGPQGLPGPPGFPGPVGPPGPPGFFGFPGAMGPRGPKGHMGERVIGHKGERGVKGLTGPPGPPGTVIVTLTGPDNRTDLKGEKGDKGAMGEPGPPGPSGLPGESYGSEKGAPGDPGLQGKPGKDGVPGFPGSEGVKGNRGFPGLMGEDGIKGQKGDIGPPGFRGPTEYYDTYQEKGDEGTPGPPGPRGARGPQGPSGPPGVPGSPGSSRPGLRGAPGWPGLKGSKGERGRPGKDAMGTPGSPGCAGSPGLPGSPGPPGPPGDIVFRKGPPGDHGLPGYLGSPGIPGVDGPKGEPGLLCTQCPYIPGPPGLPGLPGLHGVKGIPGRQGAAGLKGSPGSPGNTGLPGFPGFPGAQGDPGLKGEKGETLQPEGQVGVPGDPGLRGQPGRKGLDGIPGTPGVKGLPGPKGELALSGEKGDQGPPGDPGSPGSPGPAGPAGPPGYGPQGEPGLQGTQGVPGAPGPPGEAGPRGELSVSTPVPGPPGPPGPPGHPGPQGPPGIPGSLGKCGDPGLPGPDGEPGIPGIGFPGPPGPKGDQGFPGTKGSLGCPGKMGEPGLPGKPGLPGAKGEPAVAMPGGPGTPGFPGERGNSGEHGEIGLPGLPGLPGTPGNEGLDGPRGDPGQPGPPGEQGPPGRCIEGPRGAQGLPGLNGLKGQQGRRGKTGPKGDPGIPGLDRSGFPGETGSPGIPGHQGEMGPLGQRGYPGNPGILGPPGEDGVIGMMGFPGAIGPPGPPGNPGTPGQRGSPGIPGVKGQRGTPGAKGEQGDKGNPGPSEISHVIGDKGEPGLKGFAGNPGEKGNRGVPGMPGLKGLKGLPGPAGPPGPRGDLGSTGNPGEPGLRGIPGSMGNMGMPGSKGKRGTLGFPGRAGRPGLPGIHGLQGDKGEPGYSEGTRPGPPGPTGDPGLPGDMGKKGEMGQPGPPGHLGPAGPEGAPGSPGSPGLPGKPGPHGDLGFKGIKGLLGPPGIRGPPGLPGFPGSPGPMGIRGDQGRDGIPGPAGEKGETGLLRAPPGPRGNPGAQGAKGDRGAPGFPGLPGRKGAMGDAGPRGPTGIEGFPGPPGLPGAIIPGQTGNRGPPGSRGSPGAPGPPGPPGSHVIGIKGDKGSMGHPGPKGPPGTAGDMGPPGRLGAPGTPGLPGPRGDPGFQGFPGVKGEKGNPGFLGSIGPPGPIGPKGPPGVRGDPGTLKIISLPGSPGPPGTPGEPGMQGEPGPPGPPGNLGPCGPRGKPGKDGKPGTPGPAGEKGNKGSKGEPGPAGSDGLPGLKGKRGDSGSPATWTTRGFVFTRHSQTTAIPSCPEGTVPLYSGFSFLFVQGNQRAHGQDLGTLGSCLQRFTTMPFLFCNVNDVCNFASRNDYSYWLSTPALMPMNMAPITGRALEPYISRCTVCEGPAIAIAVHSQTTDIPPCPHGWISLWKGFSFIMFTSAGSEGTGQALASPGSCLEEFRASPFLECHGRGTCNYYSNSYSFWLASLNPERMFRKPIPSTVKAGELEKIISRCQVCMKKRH

Consider human Collagenase-3, for which the Specificity Constant (kcat/Km) was 813000 1/sM with Dnp-GPVNLHGC(Me)-NH2; 2.4e+06 1/sM with Dnp-GPLGFRGC(Me)-NH2; 634000 1/sM in the series with Dnp-GPRPFRG-NH2; 191000 1/sM in the series on Dnp-GPLSISG-NH2; 454000 1/sM with Dnp-GPLSFQG-NH2; 887000 1/sM in the series on Dnp-GPMSYNG-NH2. The Specificity Constant (kcat/Km) with Dnp-GPLGLHVC(Me)-NH2 is 4.46e+06 1/sM; in the series on Dnp-GPKGITS-NH2 it was 734000 1/sM; in the series with Dnp-GPLGLHGC(Me)-NH2 it was 3.73e+06 1/sM; in the series on Dnp-GPLPFRGC(Me)-NH2, 973000 1/sM; in the series on Dnp-GPHPFRG-NH2 it was 900000 1/sM; with Dnp-GPFGLKG-NH2, 1.28e+06 1/sM. Besides, the Specificity Constant (kcat/Km) was 528000 1/sM with Dnp-DEGPMGLKC(Me)YLG-NH2; 2.32e+06 1/sM in the series with Dnp-GPKGMRG-NH2; 230000 1/sM in the series with Dnp-PHPFRG-NH2; 700000 1/sM in the series with Dnp-GPINLHG-NH2; 91700 1/sM in the series with Dnp-PSGIHL-NH2; 677000 1/sM with Dnp-GPAPLHVC(Me)-NH2. Further, the Specificity Constant (kcat/Km) in the series with Dnp-GPLQMRG-NH2 was 885000 1/sM; in the series with Dnp-GPAPLHGC(Me)-NH2, 1.69e+06 1/sM; in the series with Dnp-GPLPFHVC(Me)-NH2, 598000 1/sM; with Dnp-GPVNLHG-NH2, 1.15e+06 1/sM; in series [3], 1.54e+06 1/sM; in the series on Dnp-GPSGIHL-NH2, 284000 1/sM. The Specificity Constant (kcat/Km) is 1.29e+06 1/sM with Dnp-GPLPFRVC(Me)-NH2; 705000 1/sM in the series on Dnp-GPLQFRG-NH2; 3.92e+06 1/sM with Dnp-GPLGFRVC(Me)-NH2; 862000 1/sM with Dnp-GPSELKG-NH2; 980000 1/sM with Dnp-PLGMRG-NH2; 1.14e+06 1/sM with Dnp-GPAPFRGC(Me)-NH2. The Specificity Constant (kcat/Km) in the series with Dnp-GPAPFRVC(Me)-NH2 was 1.76e+06 1/sM; in the series on Dnp-GPLSIQD-NH2 it was 868000 1/sM; with Dnp-VTPYNMRG-NH2, 2.69e+06 1/sM; in the series on Dnp-GPYGMRA-NH2 it was 5.66e+06 1/sM; in the series on Dnp-GPSPLHGC(Me)-NH2 it was 1.76e+06 1/sM; in the series with Dnp-GPLPLHGC(Me)-NH2, 1.1e+06 1/sM. Also, the Specificity Constant (kcat/Km) is 2.33e+06 1/sM with Dnp-GPHPMRG-NH2; 377000 1/sM in the series with Dnp-PINLHG-NH2; 1.41e+06 1/sM in the series on Dnp-GPSGIHV-NH2; 1.04e+06 1/sM in the series on Dnp-GPVNLHGRC(Me)-NH2; 338000 1/sM in the series on Dnp-GPSPFHVC(Me)-NH2; 1.3e+06 1/sM with Dnp-GPSPFRGC(Me)-NH2. The Specificity Constant in the series on Dabcyl-GPHPFRGC(Flu)-NH2 is 32700 1/sM; in [2] it was 4.4e+06 1/sM and 1.62e+06 1/sM; in the series on Dabcyl-GPVNLHGC(Flu)-NH2, 421000 1/sM. Besides, the Specificity Constant, + Gel in the series on Dabcyl-GPHPFRGC(Flu)-NH2 is 26900 1/sM; in series [2] it was 1.74e+06 1/sM; with Dabcyl-GPVNLHGC(Flu)-NH2, 471000 1/sM. The “sensitivity for collagenase 3 against the consensus substrate FlSb1” value in [1] is 100-fold less sensitive for collagenase 3 compared to the consensus substrate. Further, the Specificity Constant (kcat/Km), substrate 5 uM in the series on Dnp-GPVNFRVC(Me)-NH2 was 2.57e+06 1/sM. In addition, the Specificity Constant (kcat/Km), + 1:1 Gelatin with Dnp-GPLGMRG-NH2 was 340000 1/sM. The Specificity Constant (kcat/Km), + 1:4 Gelatin with Dnp-GPLGMRG-NH2 was 562000 1/sM. For the same substance, the Specificity Constant (kcat/Km), + 1:16 Gelatin in the series with Dnp-GPLGMRG-NH2 was 1.93e+06 1/sM. In addition, the Specificity Constant (kcat/Km), + 1:64 Gelatin in the series with Dnp-GPLGMRG-NH2 is 2.67e+06 1/sM. For the same substance, the Specificity Constant (kcat/Km), + 1:256 Gelatin in the series on Dnp-GPLGMRG-NH2 is 4.65e+06 1/sM. Moreover, in the series on Dnp-GPLGMRG-NH2, the Specificity Constant (kcat/Km), + H2O is 3.16e+06 1/sM. In addition, the “cleavage seen on a gel” value in the series with biglycan was “Cleavage of biglycan generated peptide fragments of 28, 17, 8, and 6 kDa”; with type IV collagen, “type IV collagen digestion gave 3-4 detectable cleavage products (85 kDa, 80 kDa, 35 kDa and 28 kDa”. Further, the Specificity Constant, 0.85 to 2.10 Hours, + 1.6 ug/ml TIICol with Dabcyl-GPVNLHGC(Flu)-NH2 was 1.54e+06 1/sM. The Specificity Constant, 0.85 to 2.10 Hours, + 4.9 ug/ml TIICol in the series with Dabcyl-GPVNLHGC(Flu)-NH2 was 1.88e+06 1/sM. In addition, the Specificity Constant, 0.85 to 2.10 Hours, + 15 ug/ml TIICol with Dabcyl-GPVNLHGC(Flu)-NH2 was 2.25e+06 1/sM. Also, the Specificity Constant, 0.85 to 2.10 Hours, + 44 ug/ml TIICol in the series on Dabcyl-GPVNLHGC(Flu)-NH2 was 2.55e+06 1/sM. For the same substance, the Specificity Constant, 0.85 to 2.10 Hours, + .18 ug/ml TIICol in the series on Dabcyl-GPVNLHGC(Flu)-NH2 is 1.33e+06 1/sM. In addition, the Specificity Constant, 0.85 to 2.10 Hours, + .55 ug/ml TIICol in the series with Dabcyl-GPVNLHGC(Flu)-NH2 is 1.47e+06 1/sM. In addition, the Specificity Constant, 0.85 to 2.10 Hours, no TIICol in the series on Dabcyl-GPVNLHGC(Flu)-NH2 was 1.11e+06 1/sM.

In the case of gelatinase B, the Selectivity v. Coll-3, substrate 5 uM with Dnp-GPVNFRVC(Me)-NH2 came out at 217 unitless. Also, the “cleavage seen on a gel” value in the series with biglycan was “stromelysin 1 and gelatinase B being able to degrade this proteoglycan”; in the series with type IV collagen, “Both collagenase 1 and gelatinase B processed type IV collagen under the conditions used in our experiments”.

Consider stromelysin 1, for which the Selectivity v. Coll-3, substrate 5 uM in the series on Dnp-GPVNFRVC(Me)-NH2 was 400 unitless. Also, the “cleavage seen on a gel” value with biglycan was “stromelysin 1 and gelatinase B being able to degrade this proteoglycan”.
